According to doi:10.1101/2023.11.20.565808 (bioRxiv, 2023):

Target: GST-fused RACK1, WT (human, UniProt P63244 1-317)
Assay: pull-down

binding result: binds
B1: His6-YTHDF2, WT (FL) (natural protein)
chain: MSASSLLEQRPKGQGNKVQNGSVHQKDGLNDDDFEPYLSPQARPNNAYTAMSDSYLPSYYSPSIGFSYSLGEAAWSTGGDTAMPYLTSYGQLSNGEPHFLPDAMFGQPGALGSTPFLGQHGFNFFPSGIDFSAWGNNSSQGQSTQSSGYSSNYAYAPSSLGGAMIDGQSAFANETLNKAPGMNTIDQGMAALKLGSTEVASNVPKVVGSAVGSGSITSNIVASNSLPPATIAPPKPASWADIASKPAKQQPKLKTKNGIAGSSLPPPPIKHNMDIGTWDNKGPVAKAPSQALVQNIGQPTQGSPQPVGQQANNSPPVAQASVGQQTQPLPPPPPQPAQLSVQQQAAQPTRWVAPRNRGSGFGHNGVDGNGVGQSQAGSGSTPSEPHPVLEKLRSINNYNPKDFDWNLKHGRVFIIKSYSEDDIHRSIKYNIWCSTEHGNKRLDAAYRSMNGKGPVYLLFSVNGSGHFCGVAEMKSAVDYNTCAGVWSQDKWKGRFDVRWIFVKDVPNSQLRHIRLENNENKPVTNSRDTQEVPLEKAKQVLKIIASYKHTTSIFDDFSHYEKRQEEEESVKKERQGRGK
